Measurements published in the supplement of paper PMC10567573.

B1: CLINT1 (parent)
chain: VVTSAREHIYDLRSLENYHFVDEH
B2: PPEF2 (parent)
chain: AFKAAALIQRWYRRYVARLEMRRR

Variants of: B1
Test: protein stability index of a GFP-peptide fusion (GPS, HEK-293T) (PSI 1-6); higher = more stable
Conditions: c terminus: a fixed tail appended
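Also: lentivirally expressed fusions sorted by FACS into six bins by GFP to DsRed ratio, PSI derived from sequencing read proportions per bin multiplied by bin number.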

Protein stability index: each site, then its substitutions
L12: G 3.78; W 2.7; T 3.99
E16: S 2.67; G 2.11; Q 2.38; I 2.12; H 2.26; K 2.59; N 2.62; A 2.19; M 3.01; V 2.36; C 1.93; F 2.13; T 2.46; P 3.32; W 1.83; D 2.77; Y 1.56; R 2.43; L 2.47
D11: R 2.62; P 2.56; G 2.61; S 2.64; W 2.13; V 2.89; I 2.83; F 1.25; Q 2.54; K 2.13; A 2.79; E 2.38; H 2.3; Y 2.02; L 2.44; M 2.62; N 2.63; T 2.17; C 2.4
T3: N 2.8; Y 2.24; M 2.1; W 2.31; V 2.07; I 2.04; Q 3.25; R 3.09; D 3.52; A 2.62; G 3.78; K 3.11; C 2.29; F 1.98; S 2.89; E 3.84; H 2.48; L 2.32; P 2.99
Y10: V 2.67; W 2.06; F 2.42; S 3.37; R 3.78; H 2.9; I 2.32; Q 3.75; K 3.64; P 4.21; E 4.17; G 3.91; A 3.84; D 3.94; L 2.71; N 3.71; T 3.8; M 3.01; C 3.66
R13: Y 1.95; G 2.7; V 2.86; C 2.38; H 2.67; N 3.35; T 3.35; W 2.08; I 2.49; E 3.73; L 1.97; K 3.45; A 3.55; D 3.59; Q 3.06; M 2.9; F 1.73; S 3.18; P 3.58
V1: S 3.68; I 2.67; G 3.67; L 2.62; F 1.79; N 3.8; K 3.45; P 3.5; A 3.89; Y 1.5; W 2.47; T 3.63; D 4.06; R 2.92; Q 3.5; C 2.54; E 3.96; M 2.88; H 3.35
N17: M 2.35; F 1.86; G 2.81; I 1.83; C 2.35; S 2.18; V 2.14; K 2.63; Q 2.15; P 3.32; A 2.95; R 2.95; D 3.52; T 2.67; E 2.96; H 2.45; L 2.09
I9: H 3.24; F 2.61; Q 4.09; Y 2.15; A 2.98; W 2.21; G 3.83; R 3.66; L 2.83; T 3.31; M 3.06; N 4.5; K 3.48; P 3.59; S 4.07; D 3.54; V 3.16; E 3.62; C 2.83

Variants of: B2
Test: as above
Conditions: c terminus: a fixed tail appended

Protein stability index of substitutions, site by site:
R24: W 1.99; V 2.34; H 3.78; T 2.48; Q 3.32; L 2.9; P 2.39; K 2.75; S 2.63; F 1.81; Y 2.87; M 2.45; N 3.62; G 3.09
